B1: CD151 antigen (Homo sapiens), P48509 (parent)
chain: MGEFNEKKTTCGTVCLKYLLFTYNCCFWLAGLAVMAVGIWTLALKSDYISLLASGTYLATAYILVVAGTVVMVTGVLGCCATFKERRNLLRLYFILLLIIFLLEIIAGILAYAYYQQLNTELKENLKDTMTKRYHQPGHEAVTSAVDQLQQEFHCCGSNNSQDWRDSEWIRSQEAGGRVVPDSCCKTVVALCGQRDHASNIYKVEGGCITKLETFIQEHLRVIGAVGIGIACVQVFGMIFTCCLYRSLKLEHY
B2: Plakophilin-2 (Homo sapiens), Q99959-2 (parent)
chain: MAAPGAPAEYGYIRTVLGQQILGQLDSSSLALPSEAKLKLAGSSGRGGQTVKSLRIQEQVQQTLARKGRSSVGNGNLHRTSSVPEYVYNLHLVENDFVGGRSPVPKTYDMLKAGTTATYEGRWGRGTAQYSSQKSVEERSLRHPLRRLEISPDSSPERAHYTHSDYQYSQRSQAGHTLHHQESRRAALLVPPRYARSEIVGVSRAGTTSRQRHFDTYHRQYQHGSVSDTVFDSIPANPALLTYPRPGTSRSMGNLLEKENYLTAGLTVGQVRPLVPLQPVTQNRASRSSWHQSSFHSTRTLREAGPSVAVDSSGRRAHLTVGQAAAGGSGNLLTERSTFTDSQLGNADMEMTLERAVSMLEADHMLPSRISAAATFIQHECFQKSEARKRVNQLRGILKLLQLLKVQNEDVQRAVCGALRNLVFEDNDNKLEVAELNGVPRLLQVLKQTRDLETKKQITGLLWNLSSNDKLKNLMITEALLTLTENIIIPFSGWPEGDYPKANGLLDFDIFYNVTGCLRNMSSAGADGRKAMRRCDGLIDSLVHYVRGTIADYQPDDKATENCVCILHNLSYQLEAELPEKYSQNIYIQNRNIQTDNNKSIGCFGSRSRKVKEQYQDVPMPEEKSNPKGVEWLWHSIVIRMYLSLIAKSVRNYTQEASLGALQNLTAGSGPMPTSVAQTVVQKESGLQHTRKMLHVGDPSVKKTAISLLRNLSRNLSLQNEIAKETLPDLVSIIPDTVPSTDLLIETTASACYTLNNIIQNSYQNARDLLNTGGIQKIMAISAGDAYASNKASKAASVLLYSLWAHTELHHAYKKAQFKKTDFVNSRTAKAYHSLKD
partner: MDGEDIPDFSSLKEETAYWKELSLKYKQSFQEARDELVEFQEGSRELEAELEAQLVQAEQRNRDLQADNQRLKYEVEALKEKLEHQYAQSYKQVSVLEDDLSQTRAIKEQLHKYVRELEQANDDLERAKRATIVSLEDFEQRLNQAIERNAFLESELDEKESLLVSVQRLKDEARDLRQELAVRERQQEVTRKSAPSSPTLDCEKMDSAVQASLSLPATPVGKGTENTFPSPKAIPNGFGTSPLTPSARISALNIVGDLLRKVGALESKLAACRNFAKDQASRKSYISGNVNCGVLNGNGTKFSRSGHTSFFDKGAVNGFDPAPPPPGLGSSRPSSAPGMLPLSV
B3: Elongation factor Ts, mitochondrial (Homo sapiens), P43897-2 (parent)
chain: MSLLRSLRVFLVARTGSYPAGSLLRQSPQPRHTFYAGPRLSASASSKELLMKLRRKTGYSFVNCKKALETCGGDLKQAEIWLHKEAQKEGWSKAAKLQGRKTKEGLIGLLQEGNTTVLVEVNCETDFVSRNLKFQLLVQQVALGTMMHCQTLKDQPSAYSKVQWLTPVNLALWEAEAGGSLEGFLNSSELSGLPAGPDREGSLKDQLALAIGKLGENMILKRAAWVKVPSGFYVGSYVHGAMQSPSLHKLVLGKYGALVICETSEQKTNLEDVGRRLGQHVVGMAPLSVGSLDDEPGGEAETKMLSQPYLLDPSITLGQYVQPQGVSVVDFVRFECGEGEEAAETE
B4: Keratin, type I cytoskeletal 18 (Homo sapiens), P05783 (parent)
chain: MSFTTRSTFSTNYRSLGSVQAPSYGARPVSSAASVYAGAGGSGSRISVSRSTSFRGGMGSGGLATGIAGGLAGMGGIQNEKETMQSLNDRLASYLDRVRSLETENRRLESKIREHLEKKGPQVRDWSHYFKIIEDLRAQIFANTVDNARIVLQIDNARLAADDFRVKYETELAMRQSVENDIHGLRKVIDDTNITRLQLETEIEALKEELLFMKKNHEEEVKGLQAQIASSGLTVEVDAPKSQDLAKIMADIRAQYDELARKNREELDKYWSQQIEESTTVVTTQSAEVGAAETTLTELRRTVQSLEIDLDSMRNLKASLENSLREVEARYALQMEQLNGILLHLESELAQTRAEGQRQAQEYEALLNIKVKLEAEIATYRRLLEDGEDFNLGDALDSSNSMQTIQKTTTRRIVDGKVVSETNDTKVLRH

Variants of B1 are the subject of one test. The conditions noted are these: with astrc_human GRAMD1C.
With R171C, the “effect of a mutation on the interaction” value is recorded as “disrupting interaction strength”.

On to R178H, for which the “effect of a mutation on the interaction” value is reported as “with no effect”.

In a further test the parent is B2. The note with it: with ndel1_human NDEL1, Q9GZM8.
S140F: the “effect of a mutation on the interaction” value was “disrupting interaction strength”.

For S644P, the “effect of a mutation on the interaction” value is recorded as “disrupting interaction strength”.

Consider A264V, for which the “effect of a mutation on the interaction” value is given as “with no effect”.

The next test covers variants of B3. The conditions noted are these: with pp12c_human PPP1R12C.
Consider R333W, for which the “effect of a mutation on the interaction” value is “disrupting interaction strength”.

The next test covers variants of B4. The note with it: with goga2_human GOLGA2, Q08379.
Sequence of goga2_human GOLGA2, Q08379 (Q08379 whole entry): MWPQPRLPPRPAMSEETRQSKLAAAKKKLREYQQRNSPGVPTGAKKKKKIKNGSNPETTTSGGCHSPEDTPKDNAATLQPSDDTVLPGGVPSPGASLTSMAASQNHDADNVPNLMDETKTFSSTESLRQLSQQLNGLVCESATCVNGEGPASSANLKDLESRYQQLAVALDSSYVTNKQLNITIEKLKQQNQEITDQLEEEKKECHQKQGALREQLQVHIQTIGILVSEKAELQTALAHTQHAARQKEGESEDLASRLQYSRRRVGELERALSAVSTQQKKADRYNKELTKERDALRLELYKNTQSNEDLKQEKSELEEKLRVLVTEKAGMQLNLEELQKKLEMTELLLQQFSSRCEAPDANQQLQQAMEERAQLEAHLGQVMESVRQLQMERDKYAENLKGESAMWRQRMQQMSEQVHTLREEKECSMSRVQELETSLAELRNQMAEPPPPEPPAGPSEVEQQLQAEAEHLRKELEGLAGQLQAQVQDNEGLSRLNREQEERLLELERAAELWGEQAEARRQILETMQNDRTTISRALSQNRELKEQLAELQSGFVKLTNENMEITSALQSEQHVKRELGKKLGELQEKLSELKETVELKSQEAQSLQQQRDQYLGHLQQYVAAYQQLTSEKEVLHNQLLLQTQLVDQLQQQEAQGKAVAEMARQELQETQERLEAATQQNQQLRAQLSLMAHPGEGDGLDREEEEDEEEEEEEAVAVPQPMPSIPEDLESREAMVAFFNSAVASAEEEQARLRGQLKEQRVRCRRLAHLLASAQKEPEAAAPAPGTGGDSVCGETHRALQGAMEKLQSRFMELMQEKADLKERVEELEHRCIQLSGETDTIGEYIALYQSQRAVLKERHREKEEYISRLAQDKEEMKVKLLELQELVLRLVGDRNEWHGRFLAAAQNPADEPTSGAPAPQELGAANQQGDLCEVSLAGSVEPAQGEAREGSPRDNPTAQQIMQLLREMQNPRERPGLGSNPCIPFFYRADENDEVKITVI
Regarding Q285R, the “effect of a mutation on the interaction” value is recorded as “disrupting interaction strength”.

Turning to G340R, the “effect of a mutation on the interaction” value is given as “disrupting interaction strength”.

The variants in the next test derive from B4. The conditions noted are these: with hgs_human HGS.
On to Q285R, for which the “effect of a mutation on the interaction” value was “disrupting interaction strength”.

As to G340R, the “effect of a mutation on the interaction” value is listed as “disrupting interaction strength”.

Variants of B4 are the subject of a further test. The note with it: with syce1_human SYCE1, Q8N0S2.
Sequence of syce1_human SYCE1, Q8N0S2 (Q8N0S2 whole entry): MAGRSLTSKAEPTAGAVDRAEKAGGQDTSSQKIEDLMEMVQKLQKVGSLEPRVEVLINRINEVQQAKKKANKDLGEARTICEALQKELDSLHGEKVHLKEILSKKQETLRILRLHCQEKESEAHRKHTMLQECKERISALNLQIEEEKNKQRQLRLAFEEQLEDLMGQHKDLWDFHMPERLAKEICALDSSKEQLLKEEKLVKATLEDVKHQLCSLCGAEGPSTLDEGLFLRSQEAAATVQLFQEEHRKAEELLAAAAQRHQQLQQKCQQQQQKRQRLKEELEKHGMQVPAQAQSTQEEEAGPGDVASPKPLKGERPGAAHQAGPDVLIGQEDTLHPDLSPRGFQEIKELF
In the case of Q285R, the “effect of a mutation on the interaction” value was “with no effect”.

Take G340R: the “effect of a mutation on the interaction” value is listed as “with no effect”.

The record behind these values is IntAct's records for PubMed 25910212.
